# Measured values as given in the supplement of paper PMC5998384.
# Experiments:
# HeLa Kyoto [1] = assay: solubility in G1/S (NP-40 vs SDS abundance) (log2 ratio); higher = more soluble; details: cell cycle stage: G1/S
# HeLa Kyoto [2] = assay: melting temperature (median over replicates), in situ; higher = more thermally stable
# HeLa Kyoto [3] = assay: solubility change mitosis vs G1/S (difference of NP-40 vs SDS log2 ratios) (log2 ratio difference); higher = more soluble in mitosis
# 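Throughout, for melting temperature (median over replicates), in situ: HeLa Kyoto cells synchronized by double thymidine or nocodazole block, proteins quantified by TMT10plex mass spectrometry, three independent biological replicates.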
# 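Throughout, for solubility change mitosis vs G1/S (difference of NP-40 vs SDS log2 ratios): synchronized HeLa Kyoto cells (double thymidine block for G1/S, nocodazole release for mitosis), protein amounts in NP-40 versus SDS lysates quantified by mass spectrometry, three biological replicates.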
# 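Throughout, for solubility in G1/S (NP-40 vs SDS abundance): HeLa Kyoto cells arrested at G1/S by double thymidine block, proteins quantified by TMT10plex mass spectrometry in mild NP-40 versus SDS extracts, three biological replicates.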
# Chain of GNPTG (chain, as listed by the source): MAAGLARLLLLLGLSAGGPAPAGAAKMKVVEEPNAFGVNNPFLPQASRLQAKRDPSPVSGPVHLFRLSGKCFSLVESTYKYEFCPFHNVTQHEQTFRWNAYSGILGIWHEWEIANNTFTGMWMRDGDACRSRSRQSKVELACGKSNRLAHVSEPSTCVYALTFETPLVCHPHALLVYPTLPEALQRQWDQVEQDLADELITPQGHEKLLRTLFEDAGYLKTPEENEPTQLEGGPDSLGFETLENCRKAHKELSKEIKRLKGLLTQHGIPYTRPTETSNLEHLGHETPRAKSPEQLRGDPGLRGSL
# Chain of DNAJC15 (chain, as listed by the source): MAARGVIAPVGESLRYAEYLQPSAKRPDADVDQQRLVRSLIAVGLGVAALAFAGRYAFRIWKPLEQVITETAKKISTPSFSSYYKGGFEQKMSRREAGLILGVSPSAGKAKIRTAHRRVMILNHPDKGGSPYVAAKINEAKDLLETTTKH
# Chain of DNAJC19 (chain, as listed by the source): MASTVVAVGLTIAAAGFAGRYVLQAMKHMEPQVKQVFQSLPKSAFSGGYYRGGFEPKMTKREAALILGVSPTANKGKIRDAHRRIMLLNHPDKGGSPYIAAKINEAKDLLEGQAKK
# Chain of HMGN3 (chain, as listed by the source): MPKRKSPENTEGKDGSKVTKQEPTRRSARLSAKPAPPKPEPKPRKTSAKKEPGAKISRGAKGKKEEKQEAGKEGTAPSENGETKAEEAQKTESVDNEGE
# Chain of GNG12 (chain, as listed by the source): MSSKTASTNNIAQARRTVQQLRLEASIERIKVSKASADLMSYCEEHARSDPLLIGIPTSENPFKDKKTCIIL
# Chain of STK25 (chain, as listed by the source): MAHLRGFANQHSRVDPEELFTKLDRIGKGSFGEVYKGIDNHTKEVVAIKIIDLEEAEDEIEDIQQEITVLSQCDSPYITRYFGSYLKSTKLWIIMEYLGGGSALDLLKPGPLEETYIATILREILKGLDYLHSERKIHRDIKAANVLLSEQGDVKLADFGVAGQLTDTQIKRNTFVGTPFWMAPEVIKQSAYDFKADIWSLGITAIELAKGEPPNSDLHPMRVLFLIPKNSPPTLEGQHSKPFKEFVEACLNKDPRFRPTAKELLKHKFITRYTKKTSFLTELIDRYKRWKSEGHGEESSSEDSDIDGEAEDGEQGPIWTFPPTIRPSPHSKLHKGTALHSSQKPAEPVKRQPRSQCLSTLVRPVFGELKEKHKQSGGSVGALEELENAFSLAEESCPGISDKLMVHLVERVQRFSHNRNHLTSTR
# Chain of POMGNT1 (chain, as listed by the source): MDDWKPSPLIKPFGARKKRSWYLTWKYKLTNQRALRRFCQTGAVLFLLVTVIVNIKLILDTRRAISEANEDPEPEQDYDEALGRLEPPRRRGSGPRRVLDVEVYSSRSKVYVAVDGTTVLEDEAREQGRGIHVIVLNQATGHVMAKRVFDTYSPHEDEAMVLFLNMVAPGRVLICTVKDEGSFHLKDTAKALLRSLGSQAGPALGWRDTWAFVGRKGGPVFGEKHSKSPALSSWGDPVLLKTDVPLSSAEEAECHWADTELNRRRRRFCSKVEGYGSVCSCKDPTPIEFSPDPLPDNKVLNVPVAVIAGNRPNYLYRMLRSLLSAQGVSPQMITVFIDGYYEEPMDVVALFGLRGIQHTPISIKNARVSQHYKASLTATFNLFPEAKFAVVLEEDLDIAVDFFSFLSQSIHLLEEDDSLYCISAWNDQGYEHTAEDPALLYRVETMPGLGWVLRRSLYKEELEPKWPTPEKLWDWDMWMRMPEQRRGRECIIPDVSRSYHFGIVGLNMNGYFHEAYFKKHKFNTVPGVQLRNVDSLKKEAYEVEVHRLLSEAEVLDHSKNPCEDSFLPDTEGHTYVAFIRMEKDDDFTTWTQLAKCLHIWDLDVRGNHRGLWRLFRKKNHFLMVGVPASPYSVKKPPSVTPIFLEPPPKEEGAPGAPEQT
# Chain of SENP3 (chain, as listed by the source): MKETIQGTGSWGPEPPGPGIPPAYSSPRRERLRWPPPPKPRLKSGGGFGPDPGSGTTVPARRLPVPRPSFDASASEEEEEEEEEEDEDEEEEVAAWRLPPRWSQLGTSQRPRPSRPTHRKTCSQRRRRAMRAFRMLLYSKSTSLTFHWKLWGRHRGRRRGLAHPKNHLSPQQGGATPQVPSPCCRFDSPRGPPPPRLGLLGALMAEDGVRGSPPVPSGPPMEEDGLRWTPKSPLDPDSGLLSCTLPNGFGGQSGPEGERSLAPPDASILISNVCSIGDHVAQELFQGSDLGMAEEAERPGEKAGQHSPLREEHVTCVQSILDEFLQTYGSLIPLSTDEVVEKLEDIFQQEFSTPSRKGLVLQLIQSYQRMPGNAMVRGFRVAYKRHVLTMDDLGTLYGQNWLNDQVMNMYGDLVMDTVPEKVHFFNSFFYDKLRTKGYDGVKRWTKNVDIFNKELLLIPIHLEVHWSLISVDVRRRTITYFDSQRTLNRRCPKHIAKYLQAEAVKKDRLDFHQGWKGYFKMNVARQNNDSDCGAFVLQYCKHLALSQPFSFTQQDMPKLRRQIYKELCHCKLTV
Substance,solubility in G1/S (log2) (HeLa Kyoto [1]),melting temperature (HeLa Kyoto [2]; cell cycle stage: mitosis),solubility change mitosis (log2) (HeLa Kyoto [3]),melting temperature (HeLa Kyoto [2]; cell cycle stage: G1/S)
ABTB2,0.00296,48.8 °C,-0.181,–
BCL9L,0.294,54.4 °C,0.083,55.7 °C
CHD8,-0.156,50.1 °C,-0.0952,46.5 °C
CHD9,-0.312,50.1 °C,0.0275,–
DNAJC15,0.11,51.2 °C,-0.164,51 °C
DNAJC19,-0.0616,53.5 °C,0.348,53.4 °C
GNG12,-1.84,54 °C,0.506,52.4 °C
GNPTG,-0.582,53.9 °C,0.688,54 °C
H2AFV,-0.332,–,0.429,52.5 °C
HMGN3,-0.266,56.8 °C,1.55,–
MAAAAAGAGSGPWAAQEKQFPPALLSFFIYNPRFGPREGQEENKILFYHPNEVEKNEKIRNVGLCEAIVQFTRTFSPSKPAKSLHTQKNRQFFNEPEENFWMVMVVRNPIIEKQSKDGKPVIEYQEEELLDKVYSSVLRQCYSMYKLFNGTFLKAMEDGGVKLLKERLEKFFHRYLQTLHLQSCDLLDIFGGISFFPLDKMTYLKIQSFINRMEESLNIVKYTAFLYNDQLIWSGLEQDDMRILYKYLTTSLFPRHIEPELAGRDSPIRAEMPGNLQHYGRFLTGPLNLNDPDAKCRFPKIFVNTDDTYEELHLIVYKAMSAAVCFMIDASVHPTLDFCRRLDSIVGPQLTVLASDICEQFNINKRMSGSEKEPQFKFIYFNHMNLAEKSTVHMRKTPSVSLTSVHPDLMKILGDINSDFTRVDEDEEIIVKAMSDYWVVGKKSDRRELYVILNQKNANLIEVNEEVKKLCATQFNNIFFLD [CCZ1],0.0726,51.8 °C,-0.169,50.9 °C
MAAAGARPVELGFAESAPAWRLRSEQFPSKVGGRPAWLGAAGLPGPQALACELCGRPLSFLLQVYAPLPGRPDAFHRCIFLFCCREQPCCAGLRVFRNQLPRKNDFYSYEPPSENPPPETGESVCLQLKSGAHLCRVCGCLGPKTCSRCHKAYYCSKEHQTLDWRLGHKQACAQPDHLDHIIPDHNFLFPEFEIVIETEDEIMPEVVEKEDYSEIIGSMGEALEEELDSMAKHESREDKIFQKFKTQIALEPEQILRYGRGIAPIWISGENIPQEKDIPDCPCGAKRILEFQVMPQLLNYLKADRLGKSIDWGILAVFTCAESCSLGTGYTEEFVWKQDVTDTP [PDCD2],-0.116,48.3 °C,-0.0555,48.5 °C
MAAPEAPPLDRVFRTTWLSTECDSHPLPPSYRKFLFETQAADLAGGTTVAAGNLLNESEKDCGQDRRAPGVQPCRLVTMTSVVKTVYSLQPPSALSGGQPADTQTRATSKSLLPVRSKEVDVSKQLHSGGPENDVTKITKLRRENGQMKATDTATRRNVRKGYKPLSKQKSEEELKDKNQLLEAVNKQLHQKLTETQGELKDLTQKVELLEKFRDNCLAILESKGLDPALGSETLASRQESTTDHMDSMLLLETLQEELKLFNETAKKQMEELQALKVKLEMKEERVRFLEQQTLCNNQVNDLTTALKEMEQLLEM [KNSTRN],0.269,50.5 °C,0.517,48.7 °C
MAAPEAWRARSCWFCEVAAATTMEATSREAAPAKSSASGPNAPPALFELCGRAVSAHMGVLESGVWALPGPILQSILPLLNIYYLERIEETALKKGLSTQAIWRRLWDELMKTRPSSLESVTCWRAKFMEAFFSHVLRGTIDVSSDRRLCDQRFSPLLHSSRHVRQLTICNMLQGATELVAEPNRRVLETLASSLHTLKFRHLLFSDVAAQQSLRQLLHQLIHHGAVSQVSLYSWPVPESALFILILTMSAGFWQPGPGGPPCRLCGEASRGRAPSRDEGSLLLGSRRPRRDAAERCAAALMASRRKSEAKQMPRAAPATRVTRRSTQESLTAGGTDLKRELHPPATSHEAPGTKRSPSAPAATSSASSSTSSYKRAPASSAPQPKPLKRFKRAAGKKGARTRQGPGAESEDLYDFVFIVAGEKEDGEEMEIGEVACGALDGSDPSCLGLPALEASQRFRSISTLELFTVPLSTEAALTLCHLLSSWVSLESLTLSYNGLGSNIFRLLDSLRALSGQAGCRLRALHLSDLFSPLPILELTRAIVRALPLLRVLSIRVDHPSQRDNPGVPGNAGPPSHIIGDEEIPENCLEQLEMGFPRGAQPAPLLCSVLKASGSLQQLSLDSATFASPQDFGLVLQTLKEYNLALKRLSFHDMNLADCQSEVLFLLQNLTLQEITFSFCRLFEKRPAQFLPEMVAAMKGNSTLKGLRLPGNRLGNAGLLALADVFSEDSSSSLCQLDISSNCIKPDGLLEFAKRLERWGRGAFGHLRLFQNWLDQDAVTAREAIRRLRATCHVVSDSWDSSQAFADYVSTM [LRRC41],-0.31,49.5 °C,0.0944,47.9 °C
MAAPSGTVSDSESSNSSSDAEELERCREAAMPAWGLEQRPHVAGKPRAGAANSQLSTSQPSLRHKVNEHEQDGNELQTTPEFRAHVAKKLGALLDSFITISEAAKEPAKAKVQKVALEDDGFRLFFTSVPGGREKEESPQPRRKRQPSSSSEDSDEEWRRCREAAVSASDILQESAIHSPGTVEKEAKKKRKLKKKAKKVASVDSAVAATTPTSMATVQKQKSGELNGDQVSLGTKKKKKAKKASETSPFPPAKSATAIPAN [C12ORF43],-0.08,56.9 °C,0.379,56.1 °C
MAAQGAAAAVAAGTSGVAGEGEPGPGENAAAEGTAPSPGRVSPPTPARGEPEVTVEIGETYLCRRPDSTWHSAEVIQSRVNDQEGREEFYVHYVGFNRRLDEWVDKNRLALTKTVKDAVQKNSEKYLSELAEQPERKITRNQKRKHDEINHVQKTYAEMDPTTAALEKEHEAITKVKYVDKIHIGNYEIDAWYFSPFPEDYGKQPKLWLCEYCLKYMKYEKSYRFHLGQCQWRQPPGKEIYRKSNISVYEVDGKDHKIYCQNLCLLAKLFLDHKTLYFDVEPFVFYILTEVDRQGAHIVGYFSKEKESPDGNNVACILTLPPYQRRGYGKFLIAFSYELSKLESTVGSPEKPLSDLGKLSYRSYWSWVLLEILRDFRGTLSIKDLSQMTSITQNDIISTLQSLNMVKYWKGQHVICVTPKLVEEHLKSAQYKKPPITVDSVCLKWAPPKHKQVKLSKK [KAT8],-0.134,49.9 °C,-0.249,–
MVVPSLKLQDLIEEIRGAKTQAQEREVIQKECAHIRASFRDGDPVHRHRQLAKLLYVHMLGYPAHFGQMECLKLIASSRFTDKRVGYLGAMLLLDERHDAHLLITNSIKNDLSQGIQPVQGLALCTLSTMGSAEMCRDLAPEVEKLLLQPSPYVRKKAILTAVHMIRKVPELSSVFLPPCAQLLHERHHGILLGTITLITELCERSPAALRHFRKVVPQLVHILRTLVTMGYSTEHSISGVSDPFLQVQILRLLRILGRNHEESSETMNDLLAQVATNTDTSRNAGNAVLFETVLTIMDIRSAAGLRVLAVNILGRFLLNSDRNIRYVALTSLLRLVQSDHSAVQRHRPTVVECLRETDASLSRRALELSLALVNSSNVRAMMQELQAFLESCPPDLRADCASGILLAAERFAPTKRWHIDTILHVLTTAGTHVRDDAVANLTQLIGGAQELHAYSVRRLYNALAEDISQQPLVQVAAWCIGEYGDLLLAGNCEEIEPLQVDEEEVLALLEKVLQSHMSLPATRGYALTALMKLSTRLCGDNNRIRQVVSIYGSCLDVELQQRAVEYDTLFRKYDHMRAAILEKMPLVERDGPQADEEAKESKEAAQLSEAAPVPTEPQASQLLDLLDLLDGASGDVQHPPHLDPSPGGALVHLLDLPCVPPPPAPIPDLKVFEREGVQLNLSFIRPPENPALLLITITATNFSEGDVTHFICQAAVPKSLQLQLQAPSGNTVPARGGLPITQLFRILNPNKAPLRLKLRLTYDHFHQSVQEIFEVNNLPVESWQ [AP1G2],-0.0347,–,-0.154,–
MWRGRAGALLRVWGFWPTGVPRRRPLSCDAASQAGSNYPRCWNCGGPWGPGREDRFFCPQCRALQAPDPTRDYFSLMDCNRSFRVDTAKLQHRYQQLQRLVHPDFFSQRSQTEKDFSEKHSTLVNDAYKTLLAPLSRGLYLLKLHGIEIPERTDYEMDRQFLIEIMEINEKLAEAESEAAMKEIESIVKAKQKEFTDNVSSAFEQDDFEEAKEILTKMRYFSNIEEKIKLKKIPL [HSCB],0.296,–,0.307,–
MWRMRGGATRRGSCCGGDGAADGRGPGRSGRARGGGSPSGGGGGVGWRGRADGARQQLEERFADLAASHLEAIRARDEWDRQNARLRQENARLRLENRRLKRENRSLFRQALRLPGEGGNGTPAEARRVPEEASTNRRARDSGREDEPGSPRALRARLEKLEAMYRRALLQLHLEQRGPRPSGDKEEQPLQEPDSGLRSRDSEPSGPWL [TUSC1],0.541,–,0.105,–
MWTADEIAQLCYEHYGIRLPKKGKPEPNHEWTLLAAVVKIQSPADKACDTPDKPVQVTKEVVSMGTGTKCIGQSKMRKNGDILNDSHAEVIARRSFQRYLLHQLQLAATLKEDSIFVPGTQKGVWKLRRDLIFVFFSSHTPCGDASIIPMLEFEDQPCCPVFRNWAHNSSVEASSNLEAPGNERKCEDPDSPVTKKMRLEPGTAAREVTNGAAHHQSFGKQKSGPISPGIHSCDLTVEGLATVTRIAPGSAKVIDVYRTGAKCVPGEAGDSGKPGAAFHQVGLLRVKPGRGDRTRSMSCSDKMARWNVLGCQGALLMHLLEEPIYLSAVVIGKCPYSQEAMQRALIGRCQNVSALPKGFGVQELKILQSDLLFEQSRSAVQAKRADSPGRLVPCGAAISWSAVPEQPLDVTANGFPQGTTKKTIGSLQARSQISKVELFRSFQKLLSRIARDKWPHSLRVQKLDTYQEYKEAASSYQEAWSTLRKQVFGSWIRNPPDYHQFK [ADAT1],0.316,–,-0.0783,–
MWYHRLSHLHSRLQDLLKGGVIYPALPQPNFKSLLPLAVHWHHTASKSLTCAWQQHEDHFELKYANTVMRFDYVWLRDHCRSASCYNSKTHQRSLDTASVDLCIKPKTIRLDETTLFFTWPDGHVTKYDLNWLVKNSYEGQKQKVIQPRILWNAEIYQQAQVPSVDCQSFLETNEGLKKFLQNFLLYGIAFVENVPPTQEHTEKLAERISLIRETIYGRMWYFTSDFSRGDTAYTKLALDRHTDTTYFQEPCGIQVFHCLKHEGTGGRTLLVDGFYAAEQVLQKAPEEFELLSKVPLKHEYIEDVGECHNHMIGIGPVLNIYPWNKELYLIRYNNYDRAVINTVPYDVVHRWYTAHRTLTIELRRPENEFWVKLKPGRVLFIDNWRVLHGRECFTGYRQLCGCYLTRDDVLNTARLLGLQA [TMLHE],-0.167,–,0.114,–
NUFIP1,-0.519,–,0.162,–
POMGNT1,-0.257,–,-0.0514,–
SENP3,-1.5,–,1.04,–
SIPA1L2,-0.433,–,0.275,–
STK25,0.291,–,-0.12,–
SYNJ2,-0.61,–,0.309,–
WDFY3,-0.364,–,0.0228,–
